Consider two substances from publication PMC12867151.

This assay concerns the target human immune complexes (ICs): heat-aggregated human IgG (human).

“Fcγ receptor 2a (FcγRIIA), human, on human platelets (from UniProt P12318 34-317)” had a neutrophil adhesion on IC-coated microcapillaries with adhered platelets at 2 dyn/cm^2; neutrophils preincubated with a blocking antibody against FcγRIIA; inhibition against the isotype control (% inhibition of neutrophil adhesion) of 86.3.
“FcγRIIIB, human, on neutrophils (from UniProt O75015 17-200) (receptor)” displayed a neutrophil adhesion on IC-coated microcapillaries with adhered platelets at 2 dyn/cm^2; neutrophils preincubated with a blocking antibody against FcγRIIIB; inhibition against the isotype control (% inhibition of neutrophil adhesion) of 63.8.
